Legend:
[1] = target: T1, HLA-DR (DRA*0101/DRB1*0401) on PRIESS cells (human, UniProt P01903 26-254; P01911 30-266); experiment: cell-based or functional assay
T1 MHC II alpha: not shown
T1 MHC II beta: not shown

[2] = target: T2, human MHC class II DR protein (DRA*0101/DRB1*0401), purified from PRIESS cells (human, UniProt P01903 26-254; P01911 30-266, limits assumed); experiment: SPR (BIAcore), MHCII on CM5 chip
T2 construct: mature; also called HLA-DR protein; MHCII
T2 MHC II alpha: not shown
T2 MHC II beta: not shown

[3] = target: T2, human MHC class II DR protein …; experiment: SPR (BIAcore), chip density 4000 RU MHCII
[4] = target: T2, human MHC class II DR protein …; experiment: BiaCore, Fab
[5] = target: HLA-DR on MHH-CALL-4 cells (human); experiment: cell-based or functional assay
[6] = target: T2, human MHC class II DR protein …; experiment: BiaCore, Fab

B1: MS-GPC-8-17 Fab (Fab, V domains shown)
VH: QVQLKESGPALVKPTQTLTLTCTFSGFSLSTSGVGVGWIRQPPGKALEWLALIDWDDDKYYSTSLKTRLTISKDTSKNQVVLTMTNMDPVDTATYYCARSPRYRGAFDYWGQGTLVTVSS
VL: DIVLTQPPSVSGAPGQRVTISCSGSSSNIGSNYVSWYQQLPGTAPKLLIYDNNQRPSGVPDRFSGSKSGTSASLAITGLQSEDEADYYCQSYDFSVYVFGGGTKLTVLG
notes: Fab: VH-CH1 with FLAG tag and STREP tag II, VL-CL; VH residue 1 is Q in Fab; also called 7BA
[1]
  EC50 of cell killing, cross-linked Fab, bivalent agent: 16 nM
[2]
  Kd: 54.7 nM
  koff: 0.00548 s⁻¹
  kon: 100000 M⁻¹ s⁻¹
[3]
  Kd: 54.7 nM
  koff: 0.00548 s⁻¹
  kon: 100000 M⁻¹ s⁻¹
[4]
  fold affinity improvement compared to MS-GPC-8/B8: 5 fold
[5]
  maximum capacity to kill MHH-Call 4 cells: 78%
[6]
  Kd: 58.6 nM
  koff: 0.00548 s⁻¹
  kon: 96000 M⁻¹ s⁻¹
